We go through twelve molecules from patent US20220249679A1 (Mitsubishi Tanabe Pharma Corporation, priority 2018, published 2022).

One series concerns the target T1, Human CD138 His (Homo sapiens, UniProt P18827).
T1 construct: His
T1 sequence (P18827 23-310): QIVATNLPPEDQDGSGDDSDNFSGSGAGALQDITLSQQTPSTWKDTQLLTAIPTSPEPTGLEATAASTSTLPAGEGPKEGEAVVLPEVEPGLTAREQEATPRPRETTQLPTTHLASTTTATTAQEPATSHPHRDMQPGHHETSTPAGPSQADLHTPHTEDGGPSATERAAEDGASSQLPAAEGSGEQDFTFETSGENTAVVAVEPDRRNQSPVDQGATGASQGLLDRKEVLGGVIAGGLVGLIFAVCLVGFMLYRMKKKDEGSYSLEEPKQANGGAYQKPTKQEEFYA
As to the kind of experiment: SPR kinetic binding, human CD138. To be noted: bivalent analyte fit. On the procedure: Murine IgGs were purified from the hybridoma supernatants and the IgGs were subject to SPR (surface plasmon resonance) for kinetic binding measurements. Human or mouse CD138 His was immobilized on a GLM chip at […] on a BioRad Proteon. […] KDs were measured using bivalent analyte fit.
For orientation: SPR reads the build-up and loss of mass on a sensor chip optically.

A short description of series [1]: Size exclusion chromatography (SEC), percent monomer. It is filed as physicochemical. The note with it: Table 19, after protein A purification. As for the experimental part:
The antibodies were purified utilizing pH dependent, protein A purification (HiTrap MabSelect SuRe 5 mL). After purification, the antibodies were buffer exchanged into 1× DPBS using zeba spin columns. The recovery and relative stability as determined by size exclusion chromatography (SEC) analysis varied between the humanized antibodies (SEC profiles not shown). The nomenclature sometimes takes the form of hF6 xky-rep where h stands for humanized, F6 stands for F12P16F6-derived, x stands for the first letter of the first procedure used to generate the humanized heavy chain sequence (e.g., x can be a=abb, s=sdr, f=fra, or c=cdr), k stands for kappa light chain, and y stands for the first letter of the first procedure used to generate the humanized light chain sequence (a=abb, s=sdr, f=fra, c=cdr).

B1: F12P7G11: murine anti-CD138 hybridoma antibody; VH SEQ ID NO:85, VL SEQ ID NO:37 (antibody, listed as Mus musculus, V domains shown)
VH: QVQLQQSGAELARPGASVKLSCKASGYTFSSHWMQWVKQRPGQGLEWIGAIYPGDGDTRFTQKFKGKATLTADKSSNTAYMQLSSLASEDSAVYYCARGIYYDRSRAMDYWGQGTSVTVSS
VL: QIVLSQSPAILSASPGEKVTMTCRASSSVNYMHWYQQKPGSSPKHWIYATSYLASGVPARFSGSGSGTSYSLTISRVEAEDAATYYCQQWSSDPLTFGAGTKLELKR
With B1, in the series with Human CD138 His, the “hCD138 ka” value was 3.81e+06 M⁻¹ s⁻¹ and the “hCD138 kd” value was determined as 0.033 s⁻¹.

B2: F6 ckf-rep: humanized anti-CD138 antibody; VH SEQ ID NO:90, VL SEQ ID NO:43 (antibody, V domains shown)
VH: QVQLVQSGAEVVKPGASVKLSCKASGYTFTSYYLYWVKKAPGQGLDWIGEIYPRSGGTNINEKFLSRVTLTADTSTSTAYLELSSLTSEDTAVYYCTRSLLYWGQGTTLTVSS
VL: DVVMTQSPLSLSVTLGQPASISCKSSQSLLASDGKTYLNWLQQRPGQSPRRLIYLVSKLDSGVPNRFSGSGSGTDFTLQISRVEAEDVGLYYCWQGAHFPFTFGSGTKLEIKR
modifications: Humanized Heavy chain variable region; Humanized Light chain variable region
On to B2, for which, in series [1], the “SEC % Monomer” value was determined as 95.3%.

B3: F6 aks-rep: humanized anti-CD138 antibody; VH SEQ ID NO:89, VL SEQ ID NO:41 (antibody, V domains shown)
VH: QVQLVQSGAEVVKPGASVKLSCKASGYTFTSYYLYWVKKAPGQGLDWIGEIYPRSGGTNYAEKFQGRVTLTADTSTSTAYLELSSLTSEDTAVYYCTRSLLYWGQGTTLTVSS
VL: DVVMTQTPLSLSVTPGQPASISCKSSQSLLASDGKTYLNWLLQRPGQSPKRLIYLVSKLDSGVPNRFSGSGSGTDFTLQISRVEAEDVGLYYCWQGAHFPFTFGSGTKLEIKR
modifications: Humanized Heavy chain variable region; Humanized Light chain variable region
B3: the “SEC % Monomer” value in series [1] worked out at 95.2%.

B4: F6 f1ka-rep: humanized anti-CD138 antibody; VH SEQ ID NO:91, VL SEQ ID NO:42 (antibody, V domains shown)
VH: QVQLQQSGAEVVKPGASVKLSCKASGYTFTSYYLYWVKKAPGQGLDWIGEIYPRSGGTNINEKFLSRVTLTADTSTSTAYMDLSSLTSEDTAVYYCTRSLLYWGQGTTLTVSS
VL: DVVMTQTPLSLSVTPGQPASISCKSSQSLLASDGKTYLNWLLQRPGQSPKRLIYLVSKLDSGVPNRFSGSGSGTDFTLQISRVEAEDVGLYYCMQGAHFPFTFGGGTKVEIKR
modifications: Humanized Heavy chain variable region; Humanized Light chain variable region
With B4, in series [1], the “SEC % Monomer” value came to 92.9%.

B5: F6 akf-rep: humanized anti-CD138 antibody; VH SEQ ID NO:89, VL SEQ ID NO:43 (antibody, V domains shown)
VH: QVQLVQSGAEVVKPGASVKLSCKASGYTFTSYYLYWVKKAPGQGLDWIGEIYPRSGGTNYAEKFQGRVTLTADTSTSTAYLELSSLTSEDTAVYYCTRSLLYWGQGTTLTVSS
VL: DVVMTQSPLSLSVTLGQPASISCKSSQSLLASDGKTYLNWLQQRPGQSPRRLIYLVSKLDSGVPNRFSGSGSGTDFTLQISRVEAEDVGLYYCWQGAHFPFTFGSGTKLEIKR
modifications: Humanized Heavy chain variable region; Humanized Light chain variable region
On to B5, for which the “SEC % Monomer” value in series [1] amounted to 95.4%.

B6: F6 f1ks-rep: humanized anti-CD138 antibody; VH SEQ ID NO:91, VL SEQ ID NO:41 (antibody, V domains shown)
VH: QVQLQQSGAEVVKPGASVKLSCKASGYTFTSYYLYWVKKAPGQGLDWIGEIYPRSGGTNINEKFLSRVTLTADTSTSTAYMDLSSLTSEDTAVYYCTRSLLYWGQGTTLTVSS
VL: DVVMTQTPLSLSVTPGQPASISCKSSQSLLASDGKTYLNWLLQRPGQSPKRLIYLVSKLDSGVPNRFSGSGSGTDFTLQISRVEAEDVGLYYCWQGAHFPFTFGSGTKLEIKR
modifications: Humanized Heavy chain variable region; Humanized Light chain variable region
For the molecule B6, the “SEC % Monomer” value in series [1] is listed as 95.6%.

B7: F6 f1kf-rep: humanized anti-CD138 antibody; VH SEQ ID NO:91, VL SEQ ID NO:43 (antibody, V domains shown)
VH: QVQLQQSGAEVVKPGASVKLSCKASGYTFTSYYLYWVKKAPGQGLDWIGEIYPRSGGTNINEKFLSRVTLTADTSTSTAYMDLSSLTSEDTAVYYCTRSLLYWGQGTTLTVSS
VL: DVVMTQSPLSLSVTLGQPASISCKSSQSLLASDGKTYLNWLQQRPGQSPRRLIYLVSKLDSGVPNRFSGSGSGTDFTLQISRVEAEDVGLYYCWQGAHFPFTFGSGTKLEIKR
modifications: Humanized Heavy chain variable region; Humanized Light chain variable region
As for B7, the “SEC % Monomer” value in series [1] worked out at 94.3%.

B8: F6 cka-rep: humanized anti-CD138 antibody; VH SEQ ID NO:90, VL SEQ ID NO:42 (antibody, V domains shown)
VH: QVQLVQSGAEVVKPGASVKLSCKASGYTFTSYYLYWVKKAPGQGLDWIGEIYPRSGGTNINEKFLSRVTLTADTSTSTAYLELSSLTSEDTAVYYCTRSLLYWGQGTTLTVSS
VL: DVVMTQTPLSLSVTPGQPASISCKSSQSLLASDGKTYLNWLLQRPGQSPKRLIYLVSKLDSGVPNRFSGSGSGTDFTLQISRVEAEDVGLYYCMQGAHFPFTFGGGTKVEIKR
modifications: Humanized Heavy chain variable region; Humanized Light chain variable region
As for B8, the “SEC % Monomer” value in series [1] stood at 88.8%.

B9: F6 aka-rep: humanized anti-CD138 antibody; VH SEQ ID NO:89, VL SEQ ID NO:42 (antibody, V domains shown)
VH: QVQLVQSGAEVVKPGASVKLSCKASGYTFTSYYLYWVKKAPGQGLDWIGEIYPRSGGTNYAEKFQGRVTLTADTSTSTAYLELSSLTSEDTAVYYCTRSLLYWGQGTTLTVSS
VL: DVVMTQTPLSLSVTPGQPASISCKSSQSLLASDGKTYLNWLLQRPGQSPKRLIYLVSKLDSGVPNRFSGSGSGTDFTLQISRVEAEDVGLYYCMQGAHFPFTFGGGTKVEIKR
modifications: Humanized Heavy chain variable region; Humanized Light chain variable region
In the case of B9, the “SEC % Monomer” value in series [1] is on record as 75.2%.

B10: F6 f2ka-rep: humanized anti-CD138 antibody; VH SEQ ID NO:92, VL SEQ ID NO:42; two lots (antibody, V domains shown)
VH: QVQLQQSGAEVVKPGASVKLSCKASGYTFTSYYLYWVKKAPGQGLDWIGEIYPRSGGTNINEKFLSRVTITADESTSTVYMQLSSLTSEDSAVYYCTRSLLYWGQGTTLTVSS
VL: DVVMTQTPLSLSVTPGQPASISCKSSQSLLASDGKTYLNWLLQRPGQSPKRLIYLVSKLDSGVPNRFSGSGSGTDFTLQISRVEAEDVGLYYCMQGAHFPFTFGGGTKVEIKR
modifications: Humanized Heavy chain variable region; Humanized Light chain variable region
notes: humanized anti-CD138 antibody; two lots
For B10, the “SEC % Monomer” value was 79.1% in series [1] (listed as F6 f2ka-rep (Lot 1)) and 95% in series [1] (listed as F6 f2ka-rep (Lot 2)).

B11: F6 f2ks-rep: humanized anti-CD138 antibody; VH SEQ ID NO:92, VL SEQ ID NO:41 (antibody, V domains shown)
VH: QVQLQQSGAEVVKPGASVKLSCKASGYTFTSYYLYWVKKAPGQGLDWIGEIYPRSGGTNINEKFLSRVTITADESTSTVYMQLSSLTSEDSAVYYCTRSLLYWGQGTTLTVSS
VL: DVVMTQTPLSLSVTPGQPASISCKSSQSLLASDGKTYLNWLLQRPGQSPKRLIYLVSKLDSGVPNRFSGSGSGTDFTLQISRVEAEDVGLYYCWQGAHFPFTFGSGTKLEIKR
modifications: Humanized Heavy chain variable region; Humanized Light chain variable region
Regarding B11, in series [1], the “SEC % Monomer” value was found to be 77.6%.

B12: F6 f2kf-rep: humanized anti-CD138 antibody; VH SEQ ID NO:92, VL SEQ ID NO:43 (antibody, V domains shown)
VH: QVQLQQSGAEVVKPGASVKLSCKASGYTFTSYYLYWVKKAPGQGLDWIGEIYPRSGGTNINEKFLSRVTITADESTSTVYMQLSSLTSEDSAVYYCTRSLLYWGQGTTLTVSS
VL: DVVMTQSPLSLSVTLGQPASISCKSSQSLLASDGKTYLNWLQQRPGQSPRRLIYLVSKLDSGVPNRFSGSGSGTDFTLQISRVEAEDVGLYYCWQGAHFPFTFGSGTKLEIKR
modifications: Humanized Heavy chain variable region; Humanized Light chain variable region
Turning to B12, the “SEC % Monomer” value in series [1] is reported as 95.1%.
